Source: the supplement of paper PMC9170038

System: MS2 coat protein
Assay: apparent KD of MS2 coat protein; designed switch direction (-1 OFF switch, 1 ON switch): -1; higher = weaker reporter binding
In short: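 The buffer was Tris-HCl pH 7.5 with KCl, MgCl2, BSA, DTT, tRNA and Tween-20. In it, SNAP-549-labelled MS2 coat protein was titrated in doubling steps from 0.7 or 1.5 nM to 3 µM over chip-bound RNA switches transcribed by stalled E. coli RNA polymerase on Illumina chips. Apparent KD is the per-design median over clusters of curve fits to normalised fluorescence.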

[1] = Eterna round: R95, input ligand: microRNA oligo, concentration not stated
[2] = Eterna round: R95, input ligand: FMN 200 uM
[3] = Eterna round: R95, input ligand: none
[4] = input ligand: microRNA oligo, concentration not stated

Sequence | apparent KD of MS2 coat protein (input ligand: FMN 200 uM) | apparent KD of MS2 coat protein (input ligand: none) | apparent KD of MS2 coat protein [1] | apparent KD of MS2 coat protein [2] | apparent KD of MS2 coat protein [3] | apparent KD of MS2 coat protein [4]
GAAUAGCAAGCGAGAUCCCACAUGAGGAUCACCCAUGUGCUCGUCUUAUAAAGUACUGUGACGAAAGUCACGGUACA [Mat - Sensor, turn-off var - Eli Mod - D12] (Eterna round: R97, puzzle: Sensor, turn-off variant 1) | 14.6 nM | 17.8 nM |  |  |  | 
GAAAAGAACGAGGAUAUGUUGGUGCAUACACUUGCAGAAGGCGUUACUUGAGGAUCACCCAAGUGAGACCGAGU [Cetelege] (Eterna round: R97, puzzle: Exclusion 6) | 273 nM | 124 nM |  |  |  | 
CACUUACAUGAGGAUCACCCAUGUGAGGAUAUCGUGACCUGACGAGAAGUCAAUGUCACGAGAAGGCACGUGGG [Exclusion 1 (Mod 3 solution 97 by Eternabot)] (Eterna round: R97, puzzle: Exclusion 1) | 11.9 nM | 35.9 nM |  |  |  | 
GGGUGACAUGAGGAUCACCCAUGUCAGGAUAUGAUACUAUGUACUUCGGUACAUAGUAUCAGAAGGGACAUCAU [Ex1-3: 14] (puzzle: Exclusion 1) |  |  | 216 nM |  |  | 
GAAAAGGUAGGAUAUACGAAAAAAAAGGGUAGAUAAAAAACACAUGAGGAUCACCCAUGUAGAAGGACCAAAAG [salish99_ex2_r3_078] (puzzle: Exclusion 2) |  |  | 41.8 nM | 101 nM | 29.3 nM | 
CAUGUCUGAGGAUAUCGUUUUUUGUACAUGAGGAUCACCCAUGUCCUAUUUUUUUUAUUUCGAGAAGGCAGUGUAU [JR_E5_Sub092] (puzzle: Exclusion 5) |  |  | 32.6 nM |  |  | 
GUGAGAUAGUUAGUGGCCGACAUGAGGAUCACCCAUGUGAGGGAAAUGUUGAGGCGAAAGCUUUUUGCUCGUCUUUA [JR_SV3TOV1_Sub037] (puzzle: Sensor v3, turn-off variant 1) |  |  | 139 nM | 30 nM | 34.8 nM | 
GCCCAGCUAGGAUAUCGCACUGCAGACAUGAGGAUCACCCAUGUGAUGAGGUCUGAAUUCCGAGAAGGAGCAUGGA [Isedzaqu] (puzzle: Exclusion 5) |  |  | 22.1 nM | 66.6 nM | 26.7 nM | 
CGGUACUGAGGAUAUACAUGAGGAUCACCCAUGUGUUCCAGCUAGCGUACUGGCAUUUGUAGAAGGCGGUGCUG [JL-ex3-3.22 Brourd mod] (puzzle: Exclusion 3) |  |  | 16 nM |  |  | 
AAGAAACAUGAGGAUCACCCAUGUGAGGAUAUGAUUAAGAAAAGAAAAGAAAGAAGAGUCAGAAGGCACAAAGG [salish99-ex1_r3_063] (puzzle: Exclusion 1) |  |  | 48.8 nM | 84.9 nM | 61.8 nM | 
GAUUAGAUAGGAUAUACAGGCUCGUCUUUAUAUUGAUCCCGACAUGAGGAUCACCCAUGUAGAAGGAUUAGAUU [Mod 30 - Jieux - Exclusion 2] (Eterna round: R97, puzzle: Exclusion 2) | 25.7 nM | 26.6 nM |  |  |  | 
UUUUAACAUGAGGAUCACCCAUGUGAGGAUAUCGAAAUUUAUAUUAAUAUUAAUUUAUCGAGAAGGCACAUUUU [JMF 32] (puzzle: Exclusion 1) |  |  | 108 nM |  |  | 
AGAUGGCGAGGAUAUACAUGAGGAUCACCCAUGUGAGAUAAUAAAGUGAGGAAGAAAAGUAGAAGGCGCUGUCA [Mat - Exclusion 3 - Mod of Salish D13] (puzzle: Exclusion 3) |  |  | 53.7 nM | 221 nM | 56.8 nM | 
UAAAGUAUAUAGGAUAUCUAGCUGGUAACAGCUAGAGAAGGAUGUACAUGAGGAUCACCCAUGUAGAUCUCAAA [Ex6/15-A3] (Eterna round: R97, puzzle: Exclusion 6) | 19.3 nM | 12.8 nM |  |  |  | 
CCCGGGAGUCAGGAUAUCUCCGAGGAGUAUCAGAGAGAAGGGACUACUUGAGGAUCACCCAAGUAGGUGUAAAA [Enleteerre] (Eterna round: R97, puzzle: Exclusion 6) | 28.8 nM | 20.2 nM |  |  |  | 
GUAUAUGAUGUAGGAUAUACGAGACAUGAGGAUCACCCAUGUGAGGGAAGGAGAAGGAGAAGAGAGUAGAAGGAUAGAGUGUGA [Default title] (Eterna round: R96, puzzle: Exclusion NG 2) | 69.3 nM | 80.6 nM |  |  |  | 45.7 nM
CGGUGUAACGUAGGAUAUCAGCGCAACUGACGAUGAGAAGGACGACAUGAGGAUCACCCAUGUGAUUUCUCAAUAUUAUACAUC [Prohibition 87 - Jieux - Exclusion NG 1] (Eterna round: R96, puzzle: Exclusion NG 1) | 511 nM | 74.5 nM |  |  |  | 58.9 nM

Sequence | apparent KD of MS2 coat protein (input ligand: FMN 200 uM) | apparent KD of MS2 coat protein (input ligand: none) | apparent KD of MS2 coat protein [1] | apparent KD of MS2 coat protein [2] | apparent KD of MS2 coat protein [3] | apparent KD of MS2 coat protein [4]
UUAAUACAUGUAGGAUAUGCGUGGCGAAGCUAUGCAGAAGGACAUGAGGAUCACCCAUGUCUAUGCGUCCGCGUACGGAUGCAA [JL Eng1 1.21 mod 6] (Eterna round: R96, puzzle: Exclusion NG 1) | 18.4 nM | 16.4 nM |  |  |  | 9.06 nM
ACCUUACUGGUCAGGAUAUACAGUCUUUGGUGUGUGUAGAAGGGACAUGAGGAUCACCCAUGUAGGUUGUUUUA [alecazam62b] (Eterna round: R97, puzzle: Brourd's mod of Exclusion 4) | 237 nM | 165 nM |  |  |  | 
ACGUACUCUGUAGGAUAUCGAUGAUGCAUGAUUCGAGAAGGACAUGAGGAUCACCCAUGUUUCAAAAGCAUACUAUGUGUAGUA [Design #2] (Eterna round: R96, puzzle: Exclusion NG 1) | 44.4 nM | 20.9 nM |  |  |  | 13.6 nM
CUUAAUUGUCACAUGGGUGACAUGAGGAUCACCCAUGUCACAAGCUUUUUGUUCGUCUUAUAAUUAACCCAUGUGAC [Stov1/12-B3] (Eterna round: R97, puzzle: Sensor, turn-off variant 1) | 13.8 nM | 13.7 nM |  |  |  | 
ACAUGAGGAUCACCCAUGUUUGGCUGGUCGUCUCCGGCUGUCGAGGAUAUAGUACGGUAUCCGCGCUAGAAGGUGAGGGCCGGC [Raxeorer] (Eterna round: R96, puzzle: Exclusion NG 3) | 11.5 nM | 19.3 nM |  |  |  | 14.6 nM
ACUCGCACUGUAAGGAUAUGCAAUUACGAAAGUGAGCAGAAGGUACAUGAGGAUCACCCAUGUGCGAAUCAGUG [Eternabot (Original) Solution 36] (Eterna round: R97, puzzle: Brourd's mod of Exclusion 4) | 18.9 nM | 20 nM |  |  |  | 
UUAAUGAUUGUGAGGAUAUCGGAUAGAUAGAUAUUUGAGAAGGUACAUGAGGAUCACCCAUGUGUGAUUAGAGA [Brourd's EX4 #67] (Eterna round: R97, puzzle: Brourd's mod of Exclusion 4) | 155 nM | 111 nM |  |  |  | 
GAAUUGUGAGGAUAUUAGUUGUACGUCAAUAGACGUAUAAGUGAGAAGGCACAUGAGGAUCACCCAUGUUCCUG [salish99_ex4_r4_401] (Eterna round: R97, puzzle: Exclusion 4) | 57.8 nM | 19.4 nM |  |  |  | 
AGGUCCUUCUGGACACAUGAGGAUCACCCAUGUGCGGUCAGCGAGGAUAUCGGUCUAUAAUGUGACGAGAAGGCGCGGACCGAU [Ex NG3 #60] (Eterna round: R96, puzzle: Exclusion NG 3) | 38.9 nM | 20.7 nM |  |  |  | 15.3 nM
AGUACUAACACGCCUGUGUUAGUACAAUAAGCUUGUGAAACAUGAGGAUCACCCAUGUCCUCAUAAGCUCGUCUUAU [salish99_TOv2_r3_077] (puzzle: Sensor v3, turn-off variant 2) |  |  | 671 nM | 16.3 nM | 15.4 nM | 
CAGUACUGAGGAUAUACAUGAGGAUCACCCAUGUGUUCCAGCUAGGAAACUAGCAUAUGUAGAAGGCAGUACUG [Eli x3 4.06] (Eterna round: R97, puzzle: Exclusion 3) | 578 nM | 298 nM |  |  |  | 
AAAUUAGCAAGUAGAUCCGACAUGAGGAUCACCCAUGUAAUCUAAUAUUACGCUGCAUGAGAGUGCGCUCGUCUUAG [Sensor-V1 #16] (Eterna round: R97, puzzle: Sensor, turn-off variant 1) | 211 nM | 238 nM |  |  |  | 
CUUUUGUGAGGAUAUCAGUAGUAAAUAAAUAAAAUUACUUCUGAGAAGGCACAUGAGGAUCACCCAUGUUCCUC [salish99_ex3_r3_087] (puzzle: Exclusion 4) |  |  | 35.7 nM |  |  | 
UAAUGUAUAUAGGAUAUCUAGCUGGUAACAGCUAGAGAAGGAUGUACAUGAGGAUCACCCAUGUAAAUCUCAAU [Ex6/12-B2] (Eterna round: R97, puzzle: Exclusion 6) | 32.5 nM | 20.9 nM |  |  |  | 
GAAAACGCAAAGGAUAUUACAGAUCAAAGCUGCUGAGAAGGUUGCACAUGAGGAUCACCCAUGUGGUCUUUCAA [Mod of Quesina 18 - Jieux - Exclusion 6] (Eterna round: R97, puzzle: Exclusion 6) | 213 nM | 27.3 nM |  |  |  | 
CCACGUCCGUACGUGUACUUGUCUCCUGUGUGCCCGGGUACAUGAGGAUCACCCAUGUCUGUGCUCGCCUUCUGCCC [JR_Sensorv2_tov2_Sub724] (Eterna round: R96, puzzle: Sensor v2, turn-off variant 2) | 126 nM | 165 nM |  |  |  | 84.7 nM
CUGUACUGAGGAUAUACAUGAGGAUCACCCAUGUGAUUUGGUGCACGCGUACGUGUACGUAGAAGGCAGUACAG [Mat - Exclusion 3 - Eli Mod - D39] (Eterna round: R97, puzzle: Exclusion 3) | 317 nM | 25.5 nM |  |  |  | 
